Data as given in patent US20130273046A1 (UNIVERSITE DE LAUSANNE, published 2013).

What was measured:
mouse EDAR-Fc = molecular target: T1, mouse EDAR-Fc (mouse); assay: ELISA on mouse EDAR-Fc (FIG. 6, 9)
T1 construct: also called mouse EDAR (1-183)-Fc; soluble mouse EDAR-Fc fusion protein
Experimental: FIG. 6. Specific binding of the anti-EDAR mAb to both mouse and human EDAR. Graded concentrations of mAbEDAR1-4 or of a control mAb (Aprily 5) were added to wells of a 96-well ELISA plate coated with 100 μl of 1 μg/ml of human EDAR-Fc, mouse EDAR-Fc, human Fas-Fc or Flag-human APRIL. […] The absorbance was measured at 490 nm.
In order to obtain antibodies recognizing both human and mouse EDAR, a feature which would considerably facilitate pre-clinical development of drug candidates, EDAR-deficient mice were immunized with human EDAR. It was then assessed whether monoclonal antibodies generated from these mice indeed recognized EDAR from these two animal species. The wells of microtiter plates were coated with soluble human and mouse EDAR-Fc fusion protein and a negative control protein (human Fas-Fc), blocked and probed with serial dilutions of anti-EDAR monoclonal antibody (mAb) mAbEDAR1, 2, 3 and 4 and a negative control mAb (Aprily 5) (FIG. 6), or with a single dose of mAbEDAR1 to 15 (FIG. 9).

[1] = molecular target: T2, human EDAR domain I alone fused to Fc of human IgG1 (human, UniProt Q9UNE0 27-72); assay: capture ELISA on EDAR-Fc truncation proteins (FIG. 9)
T2 construct: also called CRD1 EDAR-Fc truncation protein; not shown: Fc region of human IgG1
T2 chain: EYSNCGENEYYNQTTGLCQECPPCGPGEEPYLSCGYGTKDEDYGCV
Description: (§1) Epitope mapping of anti-EDAR monoclonal antibodies on recombinant human EDAR by ELISA. (A) Schematic linear representation of human EDAR showing the position of cystein residues (thin horizontal lines), of the putative N-linked glycosylation site (thick horizontal line, N), of the six structural modules (rectangles with rounded corners) composing the three cystein-rich domains (CRD1, CRD2, CRD3), of the transmembrane domain (rectangle, TMD), of the signal peptide (Leader), of the stalk and of the intracellular domain (ID). Amino acid numbers at the junctions of interest are indicated. The arrow indicates the predicted cleavage site of the signal peptide. The scheme is drawn to scale, except for the intracellular domain. (B) Wells of ELISA plates were coated with goat anti-human IgG antibody, blocked, and further incubated with human EDAR-Fc, mouse EDAR-Fc or the indicated human EDAR-Fc truncation proteins in cell supernatants of transfected cells. One well was also left without cell supernatant (Ctrl). The efficient capture of the various EDAR-Fc proteins was controlled using horseradish peroxydase-coupled donkey anti-human IgG antibody. Binding of mAbEDARs were monitored with horseradish peroxydase-coupled anti-mouse IgG antibody.
(§2) EDAR is a transmembrane protein whose extracellular part is composed of three membrane distal cystein-rich domains (CRDs) and of a proximal membrane stalk domain (FIG. 9A). Constructs coding for the entire EDAR protein, domains I and II, domains II and III, domain III and the stalk domain, domains I, II and III alone and the stalk domain alone were assembled with the Fc region of human IgG1, inserted into a mammalian expression vector and transiently transfected in 293T cells. […] The other fragments were not recognized, in particular the fragments made up of either domain I or II alone. mAbEDAR5, 6, 12 and 13 specifically recognized domain I, alone or together with domain II. mAbEDAR9, 14 and 15 only recognized Fc constructs containing the entire EDAR extracellular domain.

[2] = molecular target: T3, human EDAR domain III alone fused to Fc of human IgG1 (human, limits assumed); assay: as above
T3 construct: also called CRD3 EDAR-Fc truncation protein; not shown: Fc region of human IgG1
T3 chain: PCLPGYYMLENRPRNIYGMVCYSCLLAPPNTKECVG
Description: as §1, §2

[3] = molecular target: T4, human EDAR domain III and the stalk domain fused to Fc of human IgG1 (human, UniProt Q9UNE0 115-183, limits assumed); assay: as above
T4 construct: also called CRD3 and stalk EDAR-Fc truncation protein; not shown: Fc region of human IgG1
T4 sequence: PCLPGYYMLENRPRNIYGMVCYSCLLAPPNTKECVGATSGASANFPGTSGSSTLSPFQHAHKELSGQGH
Description: as §1, §2

[4] = molecular target: T5, human EDAR domain II alone fused to Fc of human IgG1 (human, UniProt Q9R187 73-114 (mouse entry), limits assumed); assay: as above
T5 construct: also called CRD2 EDAR-Fc truncation protein; not shown: Fc region of human IgG1
T5 chain: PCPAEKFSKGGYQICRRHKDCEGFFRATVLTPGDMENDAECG
Description: as §1, §2

[5] = molecular target: T6, human EDAR domains II and III fused to Fc of human IgG1 (human, UniProt Q9R187 73-150 (mouse entry), limits assumed); assay: as above
T6 construct: also called CRD2 and CRD3 EDAR-Fc truncation protein; not shown: Fc region of human IgG1
T6 sequence: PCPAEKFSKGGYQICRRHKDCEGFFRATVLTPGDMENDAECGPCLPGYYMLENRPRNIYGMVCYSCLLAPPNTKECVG
Description: as §1, §2

[6] = molecular target: T7, human EDAR stalk domain alone fused to Fc of human IgG1 (human, limits assumed); assay: as above
T7 construct: also called stalk EDAR-Fc truncation protein; not shown: Fc region of human IgG1
T7 chain: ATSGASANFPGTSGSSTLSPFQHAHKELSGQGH
Description: as §1, §2

human EDAR-Fc = molecular target: T8, human EDAR-Fc (human); assay: Western blot, non-reducing SDS-PAGE (FIG. 7A)
T8 construct: also called hEDAR-Fc; human EDAR (1-183)-Fc
Description: (§3) FIG. 7. Use of anti-EDAR mAb in Western blotting.
(§4) The weaker signal obtained with mouse EDAR might be explained by the lower amount of mouse EDAR-Fc loaded on the gel. Binding specificity is established by showing that none of the mAbEDARs does bind to Fas-Fc and Flag-human APRIL (while Flag-human APRIL is recognized by an anti-APRIL mAb). […] The band recognized by mAbEDAR5 in the BSA lane is probably due to a cross-contamination of EDAR-Fc in the neighboring lane.

human Fas-Fc = molecular target: T9, human Fas-Fc (human, UniProt P25445 26-170, limits assumed); assay: Western blot, 20 ng hFas-Fc (FIG. 7B)
T9 construct: Negative control protein; also called hFas-Fc; not shown: Fc portion
T9 sequence (looked up): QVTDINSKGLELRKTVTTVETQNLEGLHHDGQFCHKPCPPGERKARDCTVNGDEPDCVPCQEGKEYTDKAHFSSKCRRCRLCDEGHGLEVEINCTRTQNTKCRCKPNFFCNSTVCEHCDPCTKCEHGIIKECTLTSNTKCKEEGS
Description: as §4

Flag-human APRIL = molecular target: T10, Flag-human APRIL (human, UniProt O75888 110-250, limits assumed); assay: Western blot (FIG. 7A)
T10 construct: Control antigen; not shown: Flag tag
T10 sequence (looked up): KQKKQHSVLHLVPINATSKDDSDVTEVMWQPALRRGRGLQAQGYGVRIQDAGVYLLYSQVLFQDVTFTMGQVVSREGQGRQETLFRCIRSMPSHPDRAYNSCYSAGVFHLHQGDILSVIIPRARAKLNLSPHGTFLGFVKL
Description: as §3, §4

[7] = molecular target: T11, human EDAR domains I and II fused to Fc of human IgG1 (human, UniProt Q9UNE0 27-114); assay: capture ELISA on EDAR-Fc truncation proteins
T11 construct: Tested as supernatant of transfected 293T cells; also called CRD1 and CRD2 EDAR-Fc truncation protein; fragment made up of domains I and II; not shown: Fc region of human IgG1
T11 sequence: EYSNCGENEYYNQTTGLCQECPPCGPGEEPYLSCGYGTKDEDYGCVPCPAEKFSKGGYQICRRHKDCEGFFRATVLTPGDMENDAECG
Description: as §1, §2

Measured: binding result

T1 sequence (chain, as listed by the source limits assumed): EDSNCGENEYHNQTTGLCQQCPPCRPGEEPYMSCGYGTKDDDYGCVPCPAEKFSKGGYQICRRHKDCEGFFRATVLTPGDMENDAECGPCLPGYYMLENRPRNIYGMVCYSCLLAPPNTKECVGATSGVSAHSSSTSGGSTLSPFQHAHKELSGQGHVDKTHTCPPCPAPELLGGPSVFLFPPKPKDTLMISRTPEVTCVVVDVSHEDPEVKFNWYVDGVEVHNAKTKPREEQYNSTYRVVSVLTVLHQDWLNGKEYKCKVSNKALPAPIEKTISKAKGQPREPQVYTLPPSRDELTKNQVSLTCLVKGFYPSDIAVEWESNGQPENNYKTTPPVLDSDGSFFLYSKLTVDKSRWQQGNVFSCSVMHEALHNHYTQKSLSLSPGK

B1: mAbEDAR2 (antibody, IgG1, V domains shown)
VH: QVQLQQPGAELVKPGASVKLSCKASGYTFTSYWMQWVKQRPGQGIEWIGEIDPSDSYTYYNQKFKGKATLTIDKSSSTAYMQLSSLTSEDSAVYYCSRKNYYRGMDYWGQGTSVTVSS
VL: DVLMTQTPLSLPVSLGDQASISCRSSQNIVQSNGNTYLEWYLQKPGQSPKLLIYKVSNRFSGVPDRFSGSGSGTDFTLKISRVEADDLGVYYCFQVSHVPYTFGGGTKLEIKR
notes: Light chain identical to that of mAbEDAR4; also called anti-EDAR mAb mAbEDAR2
binds: mouse EDAR-Fc | human EDAR-Fc | [7]
no binding: all other assays above
